Data from patent US20070286858A1 (Pfizer, published 2007).
Changes are numbered by the printed parent chain. Blank lines part the entries; values can stand above or below the binder they belong to.

Legend:
[1] = target: T1, baboon RAGE (baboon (Papio cyanocephalus), UniProt Q15109 23-404 (human entry)); assay: IHC, septic baboon lung, 1 µg/ml
T1 construct: On transfected 293 cells or endogenous in baboon lung sections; also called 293-baboon RAGE; RAGE in baboon lung
T1 chain: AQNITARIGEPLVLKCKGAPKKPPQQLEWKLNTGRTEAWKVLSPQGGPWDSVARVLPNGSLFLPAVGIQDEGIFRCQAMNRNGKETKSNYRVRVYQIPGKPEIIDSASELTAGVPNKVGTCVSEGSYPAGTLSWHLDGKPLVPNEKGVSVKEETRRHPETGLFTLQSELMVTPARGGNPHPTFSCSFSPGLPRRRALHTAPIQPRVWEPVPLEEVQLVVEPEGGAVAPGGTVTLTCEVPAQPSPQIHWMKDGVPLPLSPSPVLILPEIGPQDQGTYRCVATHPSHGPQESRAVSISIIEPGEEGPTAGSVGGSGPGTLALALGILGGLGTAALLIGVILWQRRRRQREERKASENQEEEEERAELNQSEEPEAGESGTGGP
Protocol: Immunohistochemistry for RAGE lung tissues isolated from baboon, cynomolgus monkey, rabbit or Chinese Hamster Ovary cells over-expressing human RAGE or control CHO cells were performed using standard techniques. RAGE antibodies and rat IgG2b isotype control or mouse isotype control were used at […]. […] Following detection with HRP and Alexa Fluor 594, Alexa Fluor 488 or anti-biotin conjugated with FITC, sections were also stained with 4′-6-Diamidino-2-phenylindole (DAPI).
CHO cells stable transfected with an expression vector that expresses DNA encoding hRAGE is used as a positive control.

[2] = target: T2, soluble human streptavidin-tagged RAGE (human, UniProt Q15109 23-344); assay: BIACORE capture assay, antibody on CM5 chip, hRAGE-SA 0-100 nM in solution
T2 construct: also called hRAGE-SA; human RAGE-strep
Protocol: The assays were performed by coating antibodies onto a CM5 BIA chip with 5000-7000 RU.

[3] = target: T3, human RAGE-Fc fusion protein (human, UniProt Q15109 23-344); assay: ELISA, coated hRAGE-Fc
T3 construct: also called hRAGE-Fc; huRAGE-Fc; not shown: Fc domain of human IgG
Protocol: Antibodies were purified from hybridoma supernatants using standard procedures. Purified antibodies were evaluated for binding to soluble forms of RAGE with the use of ELISA. […] After washing and blocking with PBS containing 1% BSA and 0.05% Tween-20, 100 ul of sample (samples were in several forms: diluted immune serum, hybridoma supernatants, or purified antibodies, as indicated) was added and incubated for 1 hour at room temperature. The plates were washed with PBS, pH 7.2 and bound anti-RAGE antibodies were detected with the use of peroxidase-conjugated goat, anti-mouse IgG (H+L) (IgG) (Pierce, Rockford, Ill.) followed by incubation with the substrate TMB (BioFX Laboratories Owings Mills, Md. Laboratories). Absorbance values were determined at 450 nm in a spectrophotometer. The concentrations of monoclonal antibodies were determined with the use of peroxidase-labeled goat, anti-mouse IgG (Fcγ) (Pierce Rockford, Ill.) and a standard curve was generated by a purified, isotype-matched mouse IgG.

[4] = target: T4, human RAGE, full length (human, UniProt Q15109 23-404); assay: FACS, 293 cells infected with human RAGE adenovirus
T4 construct: Expressed on 293 or CHO cells, or endogenous in human lung sections; also called hRAGE; cell-surface hRAGE
Protocol: Human 293 cells were infected with the human and murine RAGE adenovirus. Infected cells were suspended in PBS containing 1% BSA at a density of 4×10⁴ cells/ml. Cells were incubated with 100 ul of sample (diluted immune sera, hybridoma supernatants or purified antibodies) for 30 min at 4° C. After washing, cells were incubated with PE-labeled goat, anti-mouse, IgG, F(ab′)₂ (DAKO Corporation GlostrupDenmark) for 30 min at 4° C. in the dark. Cell-associated fluorescence signals were measured by a FACScan flow cytofluorometer (Becton Dickinson) using 5000 cells per treatment. Propidium iodide was used to identify dead cells, which were excluded from the analysis.

[5] = target: T5, rhB7-H1-Fc (human, UniProt Q9NZQ7 19-239); assay: direct binding ELISA, receptor coated at 1 µg/ml, antibody at 20 µg/ml
T5 construct: not shown: Fc part not described
T5 sequence (Q9NZQ7 19-239): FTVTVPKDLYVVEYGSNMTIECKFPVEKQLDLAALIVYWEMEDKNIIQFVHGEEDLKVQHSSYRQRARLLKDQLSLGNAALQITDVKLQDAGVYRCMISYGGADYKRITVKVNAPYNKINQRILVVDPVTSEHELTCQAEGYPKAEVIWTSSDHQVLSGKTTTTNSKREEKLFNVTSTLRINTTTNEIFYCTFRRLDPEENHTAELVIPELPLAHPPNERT
Protocol: (§1) These receptors were chosen because they are cell-surface expressed, like RAGE, and their interaction with ligand is similarly dependent on charge. […] ELISA plates were coated overnight with 1 μg/ml of the listed receptor proteins.

[6] = target: rhNCAM-1 (human, UniProt P13591-3 20-603, limits assumed); assay: as above
rhNCAM-1, sequence (P13591 other isoform, or with tags, fused parts or gaps limits assumed): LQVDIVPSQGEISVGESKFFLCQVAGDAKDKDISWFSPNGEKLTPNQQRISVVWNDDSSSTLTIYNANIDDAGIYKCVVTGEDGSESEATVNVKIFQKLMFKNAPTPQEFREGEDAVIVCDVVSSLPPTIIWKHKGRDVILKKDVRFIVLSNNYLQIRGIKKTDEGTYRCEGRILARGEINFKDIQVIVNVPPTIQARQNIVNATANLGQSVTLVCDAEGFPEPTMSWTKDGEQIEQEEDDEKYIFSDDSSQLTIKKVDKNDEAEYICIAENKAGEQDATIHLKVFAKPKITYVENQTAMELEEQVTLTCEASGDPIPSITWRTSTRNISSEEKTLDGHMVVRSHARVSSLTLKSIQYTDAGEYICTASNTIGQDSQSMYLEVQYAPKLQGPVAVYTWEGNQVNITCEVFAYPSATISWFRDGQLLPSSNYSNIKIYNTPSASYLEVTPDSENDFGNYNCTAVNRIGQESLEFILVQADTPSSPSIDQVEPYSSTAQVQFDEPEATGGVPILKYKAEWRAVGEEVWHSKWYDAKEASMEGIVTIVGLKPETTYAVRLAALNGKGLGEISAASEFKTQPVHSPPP
Protocol: as §1

[7] = target: T6, mLox1-Fc (mouse, UniProt Q9EQ09 60-363); assay: as above
T6 construct: also called mLoxl-Fc; not shown: Fc part not described
T6 sequence (Q9EQ09 60-363): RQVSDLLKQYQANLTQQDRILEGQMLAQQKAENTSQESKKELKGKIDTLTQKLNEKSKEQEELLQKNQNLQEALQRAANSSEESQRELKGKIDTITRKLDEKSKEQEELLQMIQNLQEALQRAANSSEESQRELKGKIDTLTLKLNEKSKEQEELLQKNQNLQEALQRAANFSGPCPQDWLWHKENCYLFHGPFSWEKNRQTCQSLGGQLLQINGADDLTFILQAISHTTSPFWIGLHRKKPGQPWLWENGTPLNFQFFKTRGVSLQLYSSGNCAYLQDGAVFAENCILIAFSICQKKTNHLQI
Protocol: as §1

[8] = target: hLox1-Fc (human, UniProt P78380 61-273); assay: as above
Protocol: as §1

[9] = target: T7, rhVCAM-1 (human, UniProt P19320 25-698); assay: as above
T7 sequence (looked up): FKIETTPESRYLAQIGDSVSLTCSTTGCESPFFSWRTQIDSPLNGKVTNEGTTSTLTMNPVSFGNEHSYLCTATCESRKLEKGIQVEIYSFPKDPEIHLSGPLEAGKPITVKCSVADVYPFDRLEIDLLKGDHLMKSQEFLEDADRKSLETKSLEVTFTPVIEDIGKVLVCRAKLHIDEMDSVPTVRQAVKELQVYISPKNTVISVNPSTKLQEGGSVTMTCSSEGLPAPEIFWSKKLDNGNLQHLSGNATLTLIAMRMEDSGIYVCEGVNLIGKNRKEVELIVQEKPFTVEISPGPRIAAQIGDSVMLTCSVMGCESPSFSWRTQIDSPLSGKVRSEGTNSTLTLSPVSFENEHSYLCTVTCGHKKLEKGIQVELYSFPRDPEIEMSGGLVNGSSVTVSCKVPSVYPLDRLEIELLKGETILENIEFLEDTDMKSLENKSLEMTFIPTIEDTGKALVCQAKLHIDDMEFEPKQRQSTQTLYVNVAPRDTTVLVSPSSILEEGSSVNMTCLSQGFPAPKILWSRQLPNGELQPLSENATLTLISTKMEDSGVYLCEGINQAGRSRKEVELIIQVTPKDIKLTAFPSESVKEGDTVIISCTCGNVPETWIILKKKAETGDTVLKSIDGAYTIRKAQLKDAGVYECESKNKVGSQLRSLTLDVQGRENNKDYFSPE
Protocol: as §1

[10] = target: rhTLR4 (C-terminal His tag) (human, UniProt O00206 24-631); assay: as above
rhTLR4 (C-terminal His tag), sequence (O00206 24-631 limits assumed): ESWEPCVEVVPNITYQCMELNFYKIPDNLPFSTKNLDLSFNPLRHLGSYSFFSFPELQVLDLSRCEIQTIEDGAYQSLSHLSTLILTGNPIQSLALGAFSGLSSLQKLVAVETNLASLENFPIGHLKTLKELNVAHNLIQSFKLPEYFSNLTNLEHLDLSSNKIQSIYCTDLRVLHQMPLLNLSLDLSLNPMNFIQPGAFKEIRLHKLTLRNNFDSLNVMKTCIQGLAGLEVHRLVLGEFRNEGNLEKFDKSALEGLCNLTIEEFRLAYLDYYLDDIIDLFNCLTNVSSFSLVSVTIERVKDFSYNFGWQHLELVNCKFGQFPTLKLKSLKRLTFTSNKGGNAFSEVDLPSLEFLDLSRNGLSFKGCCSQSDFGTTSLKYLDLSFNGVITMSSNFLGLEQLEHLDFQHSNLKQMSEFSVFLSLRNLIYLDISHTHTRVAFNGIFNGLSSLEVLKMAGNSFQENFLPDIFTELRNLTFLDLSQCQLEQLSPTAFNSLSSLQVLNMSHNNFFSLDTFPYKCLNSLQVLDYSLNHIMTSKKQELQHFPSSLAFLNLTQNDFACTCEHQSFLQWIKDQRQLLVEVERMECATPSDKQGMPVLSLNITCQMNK
Protocol: as §1

[11] = target: T3, human RAGE-Fc fusion protein; assay: as above
Protocol: as §1

[12] = target: T8, rhICAM-1-Fc (human, UniProt P05362 28-480); assay: as above
T8 construct: also called rhlCAM-1-Fc; not shown: Fc part not described
T8 sequence (P05362 28-480): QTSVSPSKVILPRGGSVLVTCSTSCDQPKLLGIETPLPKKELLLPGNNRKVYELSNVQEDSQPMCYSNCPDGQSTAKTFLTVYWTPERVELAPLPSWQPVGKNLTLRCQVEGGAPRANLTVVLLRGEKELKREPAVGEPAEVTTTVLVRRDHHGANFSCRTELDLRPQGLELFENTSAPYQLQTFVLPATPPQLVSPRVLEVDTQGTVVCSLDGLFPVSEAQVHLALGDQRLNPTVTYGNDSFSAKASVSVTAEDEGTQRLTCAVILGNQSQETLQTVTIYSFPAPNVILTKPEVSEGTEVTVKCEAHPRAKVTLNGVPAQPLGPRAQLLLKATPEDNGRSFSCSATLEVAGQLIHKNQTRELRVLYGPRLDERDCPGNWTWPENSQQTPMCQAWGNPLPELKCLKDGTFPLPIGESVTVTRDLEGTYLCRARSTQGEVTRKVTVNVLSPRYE
Protocol: as §1

[13] = target: T3, human RAGE-Fc fusion protein; assay: ELISA of in vitro translated ScFv on coated human RAGE-Fc, anti-Flag detection
Protocol: ELISA plates coated with human RAGE-Fc (5 ug/ml) or BSA (200 ug/ml) in bicarbonate buffer overnight at 4° C., washed with PBS+tween 0.05% and blocked for 1 hour at room temperature with 2% milk powder PBS. Plates were incubated with in vitro translated ScFv for 2 hours at room temp. Plates were blocked and detection was with anti-Flag antibody (1/1000 dilution) followed by rabbit anti-mouse HRP (1/1000 dilution). […] Values for Kd of the ScFv in both formats as determined by BIACORE™ are used to determine the optimum antigen concentrations for selection experiments.

[14] = target: T9, BSA (Bos taurus, UniProt P02769); assay: ELISA of E. coli periplasmic ScFv cross-linked with anti-His antibody, on coated BSA
T9 construct: control antigen in the ScFv ELISA; also called bovine serum albumin
T9 sequence (P02769 25-607 limits assumed): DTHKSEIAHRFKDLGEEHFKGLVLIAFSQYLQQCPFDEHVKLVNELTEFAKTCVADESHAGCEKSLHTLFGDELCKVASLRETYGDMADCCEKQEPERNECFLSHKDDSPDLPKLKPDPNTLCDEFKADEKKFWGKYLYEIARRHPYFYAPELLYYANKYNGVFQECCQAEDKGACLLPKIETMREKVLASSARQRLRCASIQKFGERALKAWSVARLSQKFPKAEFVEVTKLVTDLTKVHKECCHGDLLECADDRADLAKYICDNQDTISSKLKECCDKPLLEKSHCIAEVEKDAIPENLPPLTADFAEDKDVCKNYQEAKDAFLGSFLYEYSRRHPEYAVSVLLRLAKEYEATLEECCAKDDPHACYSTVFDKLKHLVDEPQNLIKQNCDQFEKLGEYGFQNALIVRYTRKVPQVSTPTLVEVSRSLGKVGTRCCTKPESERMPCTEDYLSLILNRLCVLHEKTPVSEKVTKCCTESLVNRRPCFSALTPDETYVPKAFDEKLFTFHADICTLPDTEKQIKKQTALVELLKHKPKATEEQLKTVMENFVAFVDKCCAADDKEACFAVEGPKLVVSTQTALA
Protocol: ActRIIb represents a non-binding protein expressed from the same vector as a negative control. ELISA plates were coated with human RAGE-Fc (5 ug/ml) or BSA (200 ug/ml) in bicarbonate buffer overnight at 4 °C, washed with PBS+tween 0.05% and blocked for 1 hour at room temperature with 2% milk powder PBS. Periplasmic preparations of 20 ml E. coli cultures were performed using standard procedures. The final volume of periplasmic preparations of unpurified ScFv antibodies was 1 ml of which 50 ul was pre-incubated with anti-His antibody at 1/1000 dilution for 1 hour at room temperature in a total volume of 100 ul with 2% milk powder PBS. The cross linked periplasmic preparations were added to the ELISA plate and incubated for a further 2 hours at room temperature. The plates were washed 2 times with PBS+0.05% tween and 2 times with PBS and incubated with rabbit anti-mouse HRP at 1/1000 dilution in 2% milk powder PBS. The plates were washed as before and binding was detected using standard TMB reagents. […] Starting Kd values of the ScFv in both formats as determined by BIACORE™ are used to determine the optimum antigen concentrations for affinity selections.

binding result [1]: binds
Ka [2]: 3.69e+08 M⁻¹
Kd [2]: 2.71 nM
koff [2]: 0.00451 s⁻¹
kon [2]: 1.66e+06 M⁻¹ s⁻¹
B1: XT-H5 (antibody, mouse IgG1, V domains shown)
VH: EVLLQQSGPELVKPGASVKISCKASGYTFTDYNMDWVKQSHGKSLEWIGDINPDNGGTIYKQKFKGKATLTVDKSSSTAYMELRSLTSEDTAVYYCTTHDHYYYALDYWGQGTSVTVSS
VL: not shown
notes: also called 1hRAGEP3/55

binding result [3]: binds
binding result [4]: binds
B2: XT-H7 (antibody, mouse IgG1, V domains shown)
VH: QVQLKESGPGLVAPSQSLSITCTVSGFSLTNYGVHWVRQPPGKGLEWLGVMWAGGSTTYNSALMSRLSISKDNSKSQVFLKMNSLQTDDTAMYYCARYGNYAMDYWGQGTSVTVSS
VL: DIQMTQSPSSLSASLGGKVTITCKASQDIYKYIAWYQHKPGKGPRLLIHYTSTLQPGIPSRFSGSGSGRDYSFSISNLEPEDIATYYCLRYDNLYTFGGGTKLEIK
notes: also called 1hRAGEP3/66

OD450 [5]: 0.009
OD450 [6]: 0.011
OD450 [7]: 0.01
OD450 [8]: 0.022
OD450 [9]: 0.012
OD450 [10]: 0.003
OD450 [11]: 3.83
OD450 [12]: 0.004
B4: XT-M4-hVH-V2.0-2m/hVL-V2.11 (antibody, V domains shown)
VH: EVQLVESGGGLVQPGGSLRLSCAASGFTFNNYWMTWVRQAPGKGLEWVASIDNSGDNTYYPDSVKDRFTISRDNAKNSLYLQMNSLRAEDTAVYYCARGGDITTGFDYWGQGTLVTVSS
VL: DIQMTQSPSSLSASVGDRVTITCRASQDVGIYVNWFQQKPGKAPRRLIYRATNLADGVPSRFSGSRSGTDFTLTISSLQPEDFATYYCLEFDEHPLTFGGGTKVEIK
notes: '2m' is not explained

More lines, now with the values behind:

B3: XT-M4-hVH-V2.0-2m/hVL-V2.10 (antibody, V domains shown)
VH: B4 VH
VL: B4 VL with R45K, R66G
notes: '2m' is not explained; also called XT-M4-hVH-2.0-2m/hVL-V2.10
OD450 [5]: 0.01
OD450 [6]: 0.004
OD450 [7]: 0.016
OD450 [8]: 0.007
OD450 [9]: 0.01
OD450 [10]: 0.001
OD450 [11]: 3.81
OD450 [12]: 0.007

B5: XT-H3 (antibody, mouse IgG1, V domains shown)
VH: QVQLQQPGSELVRPGASVKLSCKTSGYTFTNYWMHWVKQRHGQGLEWIGNLYPGSGRTNYDEKFKSKVTLTEDTSSSTAYMHLSNLTSEDSAVYYCTSLRRGFVYWGQGTLVTVSA
VL: NIVMTQSPEYMSMSFGERVTLTCKASENVGSYVSWYQQKSEQSPKLLIYGASNRYTGVPDRFTGSGSATDFTLTITSVQAEDLADYHCGQTYTYPYTFGGGTKLEIK
notes: also called 1hRAGEP3/18
binding result [3]: binds
binding result [4]: binds

B6: XT-H2 VL-VH ScFv construct (scFv)
scFv: DVVLTQTPLSLPVNIGDQASISCKSTKSLLNSDGFTYLDWYLQKPGQSPQLLIYLVSDRFSGVPDRFSGSGSGTDFTLTISRVEAEDLGVYYCFQSNSLPLTFGSGTKLEIKDGGGSGGGGSGGGGSSQVQLQQSGAELAKPGASVKMSCKASGYTFTTYWMHWVKQRPGQGLYWIGYINPSTGYTEYNQKFKDKATLTADKSSSTAYMQLSSLTSEDSAVYYCARWAGYTIDYWGQGTSVTVSS
notes: Tags (Flag when translated in vitro, His when made in E. coli) are inferred from the detection antibodies
binding result [13]: binds
binding result [14]: no binding
